Values of other authors, collected in PMC3740200 (Dalton transactions (Cambridge, England : 2003), 2012).
Like-named read-outs stand apart in the source and are kept apart here.

How the values were obtained:
[1] = 4 °C, ref [16]
[2] = ref [1]; for turnover number: 100 mM phosphate buffer pH 7, 25 °C
[3] = ref [2]
[4] = ref [16]

B1: WT DaCld: wild-type chlorite dismutase from Dechloromonas aromatica, heme-binding pentameric enzyme (protein, UniProt Q47CX0 32-282, looked up)
Chlorite dismutase: QQAMQPMQSMKIERGTILTQPGVFGVFTMFKLRPDWNKVPVAERKGAAEEVKKLIEKHKDNVLVDLYLTRGLETNSDFFFRINAYDLAKAQTFMREFRSTTVGKNADVFETLVGVTKPLNYISKDKSPGLNAGLSSATYSGPAPRYVIVIPVKKNAEWWNMSPEERLKEMEVHTTPTLAYLVNVKRKLYHSTGLDDTDFITYFETDDLTAFNNLMLSLAQVKENKFHVRWGSPTTLGTIHSPEDVIKALAD
kcat ([1]; acidic form): 120 ± 5 × 10^2 s^-1 | kcat ([1]; alkaline form): 460 s⁻¹ | turnover number [2]: 1.7×10^4 ClO2^− ions/heme | turnover number ([2]; listed as WT): 17000 ClO2^− ions/heme | turnovers before irreversibly inactivating [2]: ~ 20,000 turnovers | first order kobs of second step (PAA-independent) ([3]; pH 6.0): 0.3 s⁻¹ | second order rate constant k, formation of Compound I with PAA ([3]; pH 6): 190000 M⁻¹ s⁻¹ | second order rate constant k, reaction with PAA ([3]; pH 8): 1.3e+06 M⁻¹ s⁻¹ | pKa of alkaline transition (5cHS to 6cLS) [4]: 8.9
